Experimental data as given in paper PMC8967028.

Biological target: SARS-CoV-1 spike (S) receptor binding domain (SARS-CoV-1)
Experiment: SPR

Substance | koff [s⁻¹]
VHH-72-Fc L97W (Fc fusion) | 0.00018
VHH-72-Fc L97W,T99V (Fc fusion) | 8e-05
VHH-72-Fc S56M (Fc fusion) | 0.00025
VHH-72-Fc S56M,L97W (Fc fusion) | 0.0002
VHH-72-Fc S56M,L97W,T99V (Fc fusion) | 0.00013
VHH-72-Fc S56M,T99V (Fc fusion) | 0.00016
VHH-72-Fc T99V (Fc fusion) | 0.00012
